# Results as given in doi:10.1101/2020.04.23.057265 (bioRxiv, 2020).
# Biological target: SARS-CoV nsp7L8 fusion protein (SARS-CoV, UniProt P0C6X7)
# Assay: SPR
binder,measurement,value
SARS-CoV nsp12 polymerase subunit (enzyme) SADASTFLNRVCGVSAARLTPCGTGTSTDVVYRAFDIYNEKVAGFAKFLKTNCCRFQEKDEEGNLLDSYFVVKRHTMSNYQHEETIYNLVKDCPAVAVHDFFKFRVDGDMVPHISRQRLTKYTMADLVYALRHFDEGNCDTLKEILVTYNCCDDDYFNKKDWYDFVENPDILRVYANLGERVRQSLLKTVQFCDAMRDAGIVGVLTLDNQDLNGNWYDFGDFVQVAPGCGVPIVDSYYSLLMPILTLTRALAAESHMDADLAKPLIKWDLLKYDFTEERLCLFDRYFKYWDQTYHPNCINCLDDRCILHCANFNVLFSTVFPPTSFGPLVRKIFVDGVPFVVSTGYHFRELGVVHNQDVNLHSSRLSFKELLVYAADPAMHAASGNLLLDKRTTCFSVAALTNNVAFQTVKPGNFNKDFYDFAVSKGFFKEGSSVELKHFFFAQDGNAAISDYDYYRYNLPTMCDIRQLLFVVEVVDKYFDCYDGGCINANQVIVNNLDKSAGFPFNKWGKARLYYDSMSYEDQDALFAYTKRNVIPTITQMNLKYAISAKNRARTVAGVSICSTMTNRQFHQKLLKSIAATRGATVVIGTSKFYGGWHNMLKTVYSDVETPHLMGWDYPKCDRAMPNMLRIMASLVLARKHNTCCNLSHRFYRLANECAQVLSEMVMCGGSLYVKPGGTSSGDATTAYANSVFNICQAVTANVNALLSTDGNKIADKYVRNLQHRLYECLYRNRDVDHEFVDEFYAYLRKHFSMMILSDDAVVCYNSNYAAQGLVASIKNFKAVLYYQNNVFMSEAKCWTETDLTKGPHEFCSQHTMLVKQGDDYVYLPYPDPSRILGAGCFVDDIVKTDGTLMIERFVSLAIDAYPLTKHPNQEYADVFHLYLQYIRKLHDELTGHMLDMYSVMLTNDNTSRYWEPEFYEAMYTPHTVLQ,binding result,binds
